Results taken from IntAct's records for PubMed 23297211.

B1: Small glutamine-rich tetratricopeptide repeat-containing protein 2 (Saccharomyces cerevisiae), Q12118 (parent)
chain: MSASKEEIAALIVNYFSSIVEKKEISEDGADSLNVAMDCISEAFGFEREAVSGILGKSEFKGQHLADILNSASRVPESNKKDDAENVEINIPEDDAETKAKAEDLKMQGNKAMANKDYELAINKYTEAIKVLPTNAIYYANRAAAHSSLKEYDQAVKDAESAISIDPSYFRGYSRLGFAKYAQGKPEEALEAYKKVLDIEGDNATEAMKRDYESAKKKVEQSLNLEKTVPEQSRDADVDASQGASAGGLPDLGSLLGGGLGGLMNNPQLMQAAQKMMSNPGAMQNIQKMMQDPSIRQMAEGFASGGGTPNLSDLMNNPALRNMAGNLFGGAGAQSTDETPDNENKQ
partner: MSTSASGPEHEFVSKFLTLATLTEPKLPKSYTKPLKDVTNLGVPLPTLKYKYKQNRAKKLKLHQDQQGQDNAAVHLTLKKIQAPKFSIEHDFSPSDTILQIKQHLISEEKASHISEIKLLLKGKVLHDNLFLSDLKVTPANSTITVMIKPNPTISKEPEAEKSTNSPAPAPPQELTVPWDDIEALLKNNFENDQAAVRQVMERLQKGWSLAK

Variants of: B1
Conditions: with mdy2_yeast MDY2, Q12285

Row | Variant | effect of a mutation on the interaction
1 | V35A | decreasing interaction strength
2 | D38R | disrupting interaction strength
3 | F16Y | with no effect
4 | D31R | decreasing interaction strength
5 | E42R | decreasing interaction strength
